In US20220389400:

Molecular target: amyloid β (UniProt P05067)
Chain of UniProt P05067 (P05067 whole entry, looked up): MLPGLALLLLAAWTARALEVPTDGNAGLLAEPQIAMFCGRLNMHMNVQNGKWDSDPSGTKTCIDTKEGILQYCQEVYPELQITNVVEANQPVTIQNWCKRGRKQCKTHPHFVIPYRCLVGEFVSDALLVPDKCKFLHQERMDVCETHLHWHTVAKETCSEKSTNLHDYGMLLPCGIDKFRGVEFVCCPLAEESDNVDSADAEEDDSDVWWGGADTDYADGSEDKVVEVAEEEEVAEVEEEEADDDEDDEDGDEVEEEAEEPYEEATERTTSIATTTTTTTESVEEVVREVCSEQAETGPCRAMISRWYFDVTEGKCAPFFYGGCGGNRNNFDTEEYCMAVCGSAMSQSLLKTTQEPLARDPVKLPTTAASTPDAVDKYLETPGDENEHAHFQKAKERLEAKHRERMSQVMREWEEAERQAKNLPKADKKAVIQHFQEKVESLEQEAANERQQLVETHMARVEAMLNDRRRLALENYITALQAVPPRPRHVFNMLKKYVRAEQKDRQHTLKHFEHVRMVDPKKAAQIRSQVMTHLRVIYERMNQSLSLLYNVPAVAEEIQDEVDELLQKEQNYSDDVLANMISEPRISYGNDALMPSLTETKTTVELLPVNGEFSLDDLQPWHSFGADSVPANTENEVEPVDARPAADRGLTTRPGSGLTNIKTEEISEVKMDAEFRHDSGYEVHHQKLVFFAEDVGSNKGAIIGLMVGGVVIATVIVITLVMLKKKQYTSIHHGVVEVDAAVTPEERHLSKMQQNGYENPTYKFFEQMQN

Substance	activity to degrade amyloid β (Western blot)	protease activity; amount of amyloid β by Western blot (4G8)
NIaΔ20 (20 amino acids removed from the C-terminus)	showed activity similar to normal NIa	
NIaΔ24 (24 amino acids removed from the C-terminus)	showed activity similar to normal NIa	
NIaΔ28 (28 amino acids removed from the C-terminus)	showed significantly reduced activity	
TuMV-derived NIa protease		amyloid β disappeared after treatment with NIa and its fragment for 1 hour
